Earlier results, collected in patent publication US20080089848A1, “INTRATHECAL INJECTION OF MICROBUBBLES” (priority 2006, published 2008).

Experiments:
[1] = infusion of tPA and microbubbles
stroke = conditions: intracisternal injection into the cisterna magna, rats

Row | Molecule | clot lysis [1] | functional recovery of neurons after stroke (stroke)
1 | tPA: thrombolytic agent (protein, UniProt P00750 36-562, looked up) Tissue-type plasminogen …: SYQVICRDEKTQMIYQQHQSWLRPVLRSNRVEYCWCNSGRAQCHSVPVKSCSEPRCFNGGTCQQALYFSDFVCQCPEGFAGKCCEIDTRATCYEDQGISYRGTWSTAESGAECTNWNSSALAQKPYSGRRPDAIRLGLGNHNYCRNPDRDSKPWCYVFKAGKYSSEFCSTPACSEGNSDCYFGNGSAYRGTHSLTESGASCLPWNSMILIGKVYTAQNPSAQALGLGKHNYCRNPDGDAKPWCHVLKNRRLTWEYCDVPSCSTCGLRQYSQPQFRIKGGLFADIASHPWQAAIFAKHRRSPGERFLCGGILISSCWILSAAHCFQERFPPHHLTVILGRTYRVVPGEEEQKFEVEKYIVHKEFDDDTYDNDIALLQLKSDSSRCAQESSVVRTVCLPPADLQLPDWTECELSGYGKHEALSPFYSERLKEAHVRLYPSSRCTSQHLLNRTVTDNMLCAGDTRSGGPQANLHDACQGDSGGPLVCLNDGRMTLVGIISWGLGCGQKDVPGVYTKVTNYLDWIRDNMRP | accelerate clot lysis | 
2 | BMP-7: bone morphogenetic protein (protein, UniProt P18075 293-431, looked up) Bone morphogenetic protein 7: STGSKQRSQNRSKTPKNQEALRMANVAENSSSDQRQACKKHELYVSFRDLGWQDWIIAPEGYAAYYCEGECAFPLNSYMNATNHAIVQTLVHFINPETVPKPCCAPTQLNAISVLYFDDSSNVILKKYRNMVVRACGCH |  | promotes functional recovery
